Source: patent US7049080B2, “Process for detecting serine/threonine kinase activity” (priority 2000, dated 2006)
Non-standard residues stand in square brackets, D forms with d. No end group written: not given here. pY = N[C@@H](Cc1ccc(OP(=O)(O)O)cc1)C(=O)O; pT = C[C@@H](OP(=O)(O)O)[C@H](N)C(=O)O

Experiments:
[1] = test system: T1, P1° peptide, H-Lys-Phe-Met-Met-Thr-Pro-pTyr-Val-Val-Thr-Arg-NH2
T1 sequence: KFMMTPYVVTR

[2] = test system: polyclonal phospho-JNK antibody NEB #9251; assay: Binding of polyclonal phospho-JNK antibody to TAMRA-labelled peptides (fluorescence polarization); parameters: species or system rabbit; conditions: control
Text: The polarization values dramatically increase when using the double-phosphorylated peptide substrate P1*^∘ in contrast to mono-phosphorylated labelled peptide P1^∘ (sequence see above).
Measurement of the Binding Affinity (KD) of Antibody NEB #9251:
This polyclonal antibody detects all three isoforms of the SAPK1/JNK proteins only when they are activated by dual phosphorylation at threonine183/tyrosine185. Binding of poly-clonal phospho-JNK antibody (at a dilution of 1:20) from NEB to TAMRA-labelled P1^∘- and P1*^∘ peptides (each 5 nM) was measured by fluorescence polarization.

[3] = target: Anti active SAPK1/JNK-specific polyclonal antibody, New England Biolabs NEB #9251; assay: competition with TAMRA-P1*° (5 nM) for the antibody, competitor up to 1 µM (FIG. 3)
[4] = target: Anti active SAPK1/JNK-specific polyclonal antibody, New England Biolabs NEB #9251; assay: fluorescence polarization, 200 nM P1*° competing with TAMRA-P1*° (5 nM) for antibody 1:20, 0 h
[5] = target: Anti active SAPK1/JNK-specific polyclonal antibody, New England Biolabs NEB #9251; assay: fluorescence correlation spectroscopy, competition with TAMRA-P1*° (5 nM) for the NEB antibody (1:20)
[6] = target: Anti active SAPK1/JNK-specific polyclonal antibody, New England Biolabs NEB #9251; assay: fluorescence polarization, competition with TAMRA-P1*° (5 nM) for NEB #9251 (1:20) in presence of 100 µM P1° substrate peptide, 20 µM ATP, 10 mM MgCl2

## MKK7 kinase (Upstate Biotech cat. no. 14-366)
[1]
  FP, 100 µM P1°, MKK7 0.005 µM, 0 h: 132 mP
  FP, 100 µM P1°, MKK7 0.005 µM, 0.5 h: 137 mP
  FP, 100 µM P1°, MKK7 0.005 µM, 1 h: 137 mP
  FP, 100 µM P1°, MKK7 0.005 µM, 1.5 h: 137 mP
  FP, 100 µM P1°, MKK7 0.005 µM, 3 h: 138 mP
  FP, 100 µM P1°, MKK7 0.02 µM, 0 h: 135 mP
  FP, 100 µM P1°, MKK7 0.02 µM, 0.5 h: 140 mP
  FP, 100 µM P1°, MKK7 0.02 µM, 1 h: 141 mP
  FP, 100 µM P1°, MKK7 0.02 µM, 1.5 h: 140 mP
  FP, 100 µM P1°, MKK7 0.02 µM, 3 h: 140 mP
  FP, 100 µM P1°, MKK7 0.08 µM, 0 h: 134 mP
  FP, 100 µM P1°, MKK7 0.08 µM, 0.5 h: 138 mP
  FP, 100 µM P1°, MKK7 0.08 µM, 1 h: 136 mP
  FP, 100 µM P1°, MKK7 0.08 µM, 1.5 h: 128 mP
  FP, 100 µM P1°, MKK7 0.08 µM, 3 h: 115 mP
  FP, 100 µM P1°, MKK7 0.2 µM, 0 h: 135 mP
  FP, 100 µM P1°, MKK7 0.2 µM, 0.5 h: 132 mP
  FP, 100 µM P1°, MKK7 0.2 µM, 1 h: 122 mP
  FP, 100 µM P1°, MKK7 0.2 µM, 1.5 h: 114 mP
  FP, 100 µM P1°, MKK7 0.2 µM, 3 h: 105 mP
  FP, 100 µM P1°, MKK7 0.5 µM, 0 h: 135 mP
  FP, 100 µM P1°, MKK7 0.5 µM, 0.5 h: 126 mP
  FP, 100 µM P1°, MKK7 0.5 µM, 1 h: 115 mP
  FP, 100 µM P1°, MKK7 0.5 µM, 1.5 h: 109 mP
  FP, 100 µM P1°, MKK7 0.5 µM, 3 h: 107 mP
  FP, 100 µM P1°, MKK7 1.0 µM, 0 h: 136 mP
  FP, 100 µM P1°, MKK7 1.0 µM, 0.5 h: 120 mP
  FP, 100 µM P1°, MKK7 1.0 µM, 1 h: 112 mP
  FP, 100 µM P1°, MKK7 1.0 µM, 1.5 h: 105 mP
  FP, 100 µM P1°, MKK7 1.0 µM, 3 h: 108 mP
  FP, NEB ab in STOP sol., MKK7 0.04 µM, 0 h: 147 mP
  FP, NEB ab in STOP sol., MKK7 0.04 µM, 0.5 h: 142 mP
  FP, NEB ab in STOP sol., MKK7 0.04 µM, 1 h: 140 mP
  FP, NEB ab in STOP sol., MKK7 0.04 µM, 1.5 h: 136 mP
  FP, NEB ab in STOP sol., MKK7 0.04 µM, 2 h: 134 mP
  FP, NEB ab in STOP sol., MKK7 0.04 µM, 3 h: 138 mP
  FP, NEB ab in STOP sol., MKK7 0.08 µM, 0 h: 143 mP
  FP, NEB ab in STOP sol., MKK7 0.08 µM, 0.5 h: 139 mP
  FP, NEB ab in STOP sol., MKK7 0.08 µM, 1 h: 134 mP
  FP, NEB ab in STOP sol., MKK7 0.08 µM, 1.5 h: 122 mP
  FP, NEB ab in STOP sol., MKK7 0.08 µM, 2 h: 116 mP
  FP, NEB ab in STOP sol., MKK7 0.08 µM, 3 h: 125 mP
  FP, NEB ab in STOP sol., MKK7 0.2 µM, 0 h: 148 mP
  FP, NEB ab in STOP sol., MKK7 0.2 µM, 0.5 h: 130 mP
  FP, NEB ab in STOP sol., MKK7 0.2 µM, 1 h: 114 mP
  FP, NEB ab in STOP sol., MKK7 0.2 µM, 1.5 h: 103 mP
  FP, NEB ab in STOP sol., MKK7 0.2 µM, 2 h: 99.2 mP
  FP, NEB ab in STOP sol., MKK7 0.2 µM, 3 h: 119 mP
  FP, NEB ab in reaction, MKK7 0.04 µM, 0 h: 150 mP
  FP, NEB ab in reaction, MKK7 0.04 µM, 0.5 h: 128 mP
  FP, NEB ab in reaction, MKK7 0.04 µM, 1 h: 126 mP
  FP, NEB ab in reaction, MKK7 0.04 µM, 1.5 h: 113 mP
  FP, NEB ab in reaction, MKK7 0.04 µM, 2 h: 110 mP
  FP, NEB ab in reaction, MKK7 0.04 µM, 3 h: 78.6 mP
  FP, NEB ab in reaction, MKK7 0.08 µM, 0 h: 138 mP
  FP, NEB ab in reaction, MKK7 0.08 µM, 0.5 h: 122 mP
  FP, NEB ab in reaction, MKK7 0.08 µM, 1 h: 106 mP
  FP, NEB ab in reaction, MKK7 0.08 µM, 1.5 h: 86.4 mP
  FP, NEB ab in reaction, MKK7 0.08 µM, 2 h: 84.5 mP
  FP, NEB ab in reaction, MKK7 0.08 µM, 3 h: 65 mP
  FP, NEB ab in reaction, MKK7 0.2 µM, 0 h: 137 mP
  FP, NEB ab in reaction, MKK7 0.2 µM, 0.5 h: 101 mP
  FP, NEB ab in reaction, MKK7 0.2 µM, 1 h: 83.1 mP
  FP, NEB ab in reaction, MKK7 0.2 µM, 1.5 h: 78.1 mP
  FP, NEB ab in reaction, MKK7 0.2 µM, 2 h: 72.1 mP
  FP, NEB ab in reaction, MKK7 0.2 µM, 3 h: 59.4 mP
  Km for P1° peptide (read-out: fluorescence polarization): Km=94 nM±59 nM
  phosphorylation of P1° peptide substrate by MKK7 kinase: Efficient phosphorylation of P1° peptide is measured

## TAMRA-labelled P1^∘-peptide: TAMRA-labelled mono-phosphorylated P1° peptide, control for antibody binding (KFMMTP[pY]VVTR-NH2; not fully specified (residue 5, N-terminus); also: TAMRA label, site not given here)
[2]
  binding of the polyclonal JNK antibody: no binding

B1: P1* peptide, H-Lys-Phe-Met-Met-pThr-Pro-Tyr-Val-Val-Thr-Arg-NH2 (peptide)
peptide: H-KFMM[pT]PYVVTR-NH2
SMILES: CSCC[C@H](NC(=O)[C@H](Cc1ccccc1)NC(=O)[C@@H](N)CCCCN)C(=O)N[C@@H](CCSC)C(=O)N[C@H](C(=O)N1CCC[C@H]1C(=O)N[C@@H](Cc1ccc(O)cc1)C(=O)N[C@H](C(=O)N[C@H](C(=O)N[C@H](C(=O)N[C@@H](CCCNC(=N)N)C(N)=O)[C@@H](C)O)C(C)C)C(C)C)[C@@H](C)OP(=O)(O)O
[3]
  percent of the bound ligand displaced: < 50%

B2: P1° peptide, H-Lys-Phe-Met-Met-Thr-Pro-pTyr-Val-Val-Thr-Arg-NH2 (peptide)
peptide: H-KFMMTP[pY]VVTR-NH2
SMILES: CSCC[C@H](NC(=O)[C@H](Cc1ccccc1)NC(=O)[C@@H](N)CCCCN)C(=O)N[C@@H](CCSC)C(=O)N[C@H](C(=O)N1CCC[C@H]1C(=O)N[C@@H](Cc1ccc(OP(=O)(O)O)cc1)C(=O)N[C@H](C(=O)N[C@H](C(=O)N[C@H](C(=O)N[C@@H](CCCNC(=N)N)C(N)=O)[C@@H](C)O)C(C)C)C(C)C)[C@@H](C)O
[3]
  percent of the bound ligand displaced: < 50%

B3: P1*° peptide, H-Lys-Phe-Met-Met-pThr-Pro-pTyr-Val-Val-Thr-Arg-NH2 (peptide)
peptide: H-KFMM[pT]P[pY]VVTR-NH2
SMILES: CSCC[C@H](NC(=O)[C@H](Cc1ccccc1)NC(=O)[C@@H](N)CCCCN)C(=O)N[C@@H](CCSC)C(=O)N[C@H](C(=O)N1CCC[C@H]1C(=O)N[C@@H](Cc1ccc(OP(=O)(O)O)cc1)C(=O)N[C@H](C(=O)N[C@H](C(=O)N[C@H](C(=O)N[C@@H](CCCNC(=N)N)C(N)=O)[C@@H](C)O)C(C)C)C(C)C)[C@@H](C)OP(=O)(O)O
[4]
  fluorescence polarization: 84.5 mP
[5]
  IC50: 0.005 µM
[6]
  IC50: 0.0351 µM
